Data as given in article PMC3623455.

Assays:
purified protein [1] = substrate: OC[C@@H](O)[C@H](O)[C@@H](O)CO; test: purified protein; details: 100 mM Tris-HCl pH 8.0, 1 mM NADP+, polyol oxidation
purified protein [2] = substrate: O=C(CO)[C@H](O)[C@@H](O)CO; test: purified protein; details: 50 mM Tris-HCl pH 7.0, 0.5 mM NADPH, sugar reduction

B1: LXR3 (Trichoderma reesei QM6a) (protein)
chain: KNGAFPHDNAAVPNVERVLPLFSLKGRTAIVSGAGAGIGLAVAQAFAEAGANVAIWYNSNKQAVTSAEDIAKTYGVKCKAYQVNVTSAEAVDKAITEIIKEFNGRLDVFVANSGITWTEGAFIDGSVESARNVMSVNVDGVMWCAKSAGAHFRRQKEEGTTIDGKPLDNFIAGSFIATASMSGSIVNVPQLQAVYNSSKAAVIHFCKSLAVEWTGFARVNTVSPGYIITEISNFVPPETKTLWKDKIVMGREGRVGELKGAYLYLASDASSYTTGLDMIVDGGYSLP
Purified protein [1]
  kcat: 1 s⁻¹
Purified protein [2]
  kcat: 11.4 s⁻¹
